Measured values published in publication PMC7082139, “Molecular Mechanisms of Phosphate Stress Activation of Pseudomonas aeruginosa Quorum Sensing Systems”.

T1: PhoB (Pseudomonas aeruginosa PAO1, UniProt P23620 1-229)
T1 sequence: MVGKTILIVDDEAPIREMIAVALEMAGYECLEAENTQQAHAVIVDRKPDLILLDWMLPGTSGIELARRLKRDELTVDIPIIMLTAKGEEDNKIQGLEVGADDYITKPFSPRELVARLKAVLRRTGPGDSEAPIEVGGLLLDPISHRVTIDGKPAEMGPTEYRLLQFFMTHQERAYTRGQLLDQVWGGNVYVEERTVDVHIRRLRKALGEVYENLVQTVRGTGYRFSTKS


Legend:
PhoB = biological target: T1, PhoB; assay: EMSA; conditions: protein: recombinant; tags: C-terminal His (pET-28b, NcoI-XhoI); chain copies: 2; label: biotin 3'-end; blunt
PhoB(D54A) = PhoB(D54A) (Pseudomonas aeruginosa PAO1, UniProt P23620 1-229, D54A); assay: EMSA; conditions: protein: recombinant; tags: C-terminal His (pET-28b); chain copies: 2; label: biotin 3'-end; blunt
RsaL = RsaL (Pseudomonas aeruginosa PAO1, UniProt Q9X7H4 1-80); assay: EMSA; RsaL-specific shift; displaced by increasing PhoB (competes at 3 uM); conditions: protein: recombinant; tags: C-terminal His (pET-28b); chain copies: 2; label: biotin 3'-end; blunt

| Binder | binding result (PhoB) | binding result (PhoB(D54A)) | binding result (RsaL) |
| --- | --- | --- | --- |
| P2+P3 (dsDNA) DNA 1: GTTATAAAATTATGAAATTTGCATAAATTCTTCAGCTTCCTATTTGGAGGAAGTGAAG DNA 2: CTTCACTTCCTCCAAATAGGAAGCTGAAGAATTTATGCAAATTTCATAATTTTATAAC | binds |  |  |
| P3 (downstream of pho box) (dsDNA) DNA 1: TTGCATAAATTCTTCAGCTTCCTATTTGGAGGAAGTGAAG DNA 2: CTTCACTTCCTCCAAATAGGAAGCTGAAGAATTTATGCAA | no binding |  |  |
| P1 (upstream of pho box) (dsDNA) DNA 1: TAGCAAGGGTCCGGGTTCACCGAAATCTATCTCATTTGCTA DNA 2: TAGCAAATGAGATAGATTTCGGTGAACCCGGACCCTTGCTA | no binding |  |  |
| lasI promoter (dsDNA) DNA 1: TGCTCTGATCTTTTCGGACGTTTCTTCGAGCCTAGCAAGGGTCCGGGTTCACCGAAATCTATCTCATTTGCTAGTTATAAAATTATGAAATTTGCATAAATTCTTCAGCTTCCTATTTGGAGGAAGTGAAG DNA 2: CTTCACTTCCTCCAAATAGGAAGCTGAAGAATTTATGCAAATTTCATAATTTTATAACTAGCAAATGAGATAGATTTCGGTGAACCCGGACCCTTGCTAGGCTCGAAGAAACGTCCGAAAAGATCAGAGCA | binds | binds | binds |
| P1+P2 (dsDNA) DNA 1: TAGCAAGGGTCCGGGTTCACCGAAATCTATCTCATTTGCTAGTTATAAAATTATGAAAT DNA 2: ATTTCATAATTTTATAACTAGCAAATGAGATAGATTTCGGTGAACCCGGACCCTTGCTA | binds |  |  |
